According to article PMC6910952 (Nature Communications, 2019):
No end group written: not given here.

T1: His6-yNpl4^113–580 (Saccharomyces cerevisiae, UniProt P33755 113-580)
T1 construct: codon-optimized synthetic cDNA; also called WT; WT #1; source: E. coli Rosetta (DE3), purified (Ni-NTA, Resource Q); also in lysate, mixed with cells expressing GST-yUfd1 for co-purification; not shown: His6, N-terminal, kept
T1 sequence (looked up): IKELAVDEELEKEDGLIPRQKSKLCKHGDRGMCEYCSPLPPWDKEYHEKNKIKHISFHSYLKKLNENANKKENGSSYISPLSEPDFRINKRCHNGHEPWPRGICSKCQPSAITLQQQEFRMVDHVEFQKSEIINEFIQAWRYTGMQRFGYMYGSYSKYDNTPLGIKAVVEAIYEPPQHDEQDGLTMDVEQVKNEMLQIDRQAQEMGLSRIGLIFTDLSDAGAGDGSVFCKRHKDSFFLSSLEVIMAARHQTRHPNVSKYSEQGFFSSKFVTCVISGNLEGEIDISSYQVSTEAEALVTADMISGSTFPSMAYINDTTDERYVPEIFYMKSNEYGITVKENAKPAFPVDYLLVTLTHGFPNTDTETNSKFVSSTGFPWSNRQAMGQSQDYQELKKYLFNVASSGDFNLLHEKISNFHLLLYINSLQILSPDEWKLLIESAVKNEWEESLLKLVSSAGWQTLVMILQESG


The binders below were run against T2, M1-Ub4 (UniProt P0CG48 1-76; P0CG48 1-76; P0CG48 1-76; P0CG48 1-76) (assay: SPR; Biacore T200, 25 °C; wild-type or mutant His6-yNpl4^113–580, yUfd1–His6-yNpl4^113–580 or His6-hNpl4 immobilized on a CM5 chip by amine coupling; Ub2 or Ub4 in two-fold dilution series injected 60 s at 10 μL per min in 10 mM HEPES-NaOH pH 7.5, 150 mM NaCl, 0.05% Tween-20, 0.5 g/L BSA; equilibrium Kd). Conditions: both partners purified.
T2 construct: ubiquitin (Ub), first unit; ubiquitin (Ub), second unit; ubiquitin (Ub), third unit; ubiquitin (Ub), fourth unit
T2 sequence (P0CG48 1-304, one chain of several): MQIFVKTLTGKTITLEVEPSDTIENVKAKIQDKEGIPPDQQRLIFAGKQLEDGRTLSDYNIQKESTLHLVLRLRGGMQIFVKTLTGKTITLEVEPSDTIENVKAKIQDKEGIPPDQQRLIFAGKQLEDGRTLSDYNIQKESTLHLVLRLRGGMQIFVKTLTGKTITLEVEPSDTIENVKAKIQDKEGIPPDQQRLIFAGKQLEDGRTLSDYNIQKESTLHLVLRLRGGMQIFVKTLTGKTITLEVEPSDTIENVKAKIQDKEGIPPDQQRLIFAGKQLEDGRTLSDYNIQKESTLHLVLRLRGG

| Binder | Kd [µM] |
| --- | --- |
| His6-yNpl4^113–580 T571A (domain or fragment, Saccharomyces cerevisiae, UniProt P33755 113-580, looked up, source: E. coli Rosetta (DE3), purified (Ni-NTA, Resource Q); not shown: His6, N-terminal, kept) IKELAVDEELEKEDGLIPRQKSKLCKHGDRGMCEYCSPLPPWDKEYHEKNKIKHISFHSYLKKLNENANKKENGSSYISPLSEPDFRINKRCHNGHEPWPRGICSKCQPSAITLQQQEFRMVDHVEFQKSEIINEFIQAWRYTGMQRFGYMYGSYSKYDNTPLGIKAVVEAIYEPPQHDEQDGLTMDVEQVKNEMLQIDRQAQEMGLSRIGLIFTDLSDAGAGDGSVFCKRHKDSFFLSSLEVIMAARHQTRHPNVSKYSEQGFFSSKFVTCVISGNLEGEIDISSYQVSTEAEALVTADMISGSTFPSMAYINDTTDERYVPEIFYMKSNEYGITVKENAKPAFPVDYLLVTLTHGFPNTDTETNSKFVSSTGFPWSNRQAMGQSQDYQELKKYLFNVASSGDFNLLHEKISNFHLLLYINSLQILSPDEWKLLIESAVKNEWEESLLKLVSSAGWQALVMILQESG | 923 |
| His6-yNpl4^113–580 A494F (domain or fragment, Saccharomyces cerevisiae, UniProt P33755 113-580, looked up, source: E. coli Rosetta (DE3), purified (Ni-NTA, Resource Q); not shown: His6, N-terminal, kept) IKELAVDEELEKEDGLIPRQKSKLCKHGDRGMCEYCSPLPPWDKEYHEKNKIKHISFHSYLKKLNENANKKENGSSYISPLSEPDFRINKRCHNGHEPWPRGICSKCQPSAITLQQQEFRMVDHVEFQKSEIINEFIQAWRYTGMQRFGYMYGSYSKYDNTPLGIKAVVEAIYEPPQHDEQDGLTMDVEQVKNEMLQIDRQAQEMGLSRIGLIFTDLSDAGAGDGSVFCKRHKDSFFLSSLEVIMAARHQTRHPNVSKYSEQGFFSSKFVTCVISGNLEGEIDISSYQVSTEAEALVTADMISGSTFPSMAYINDTTDERYVPEIFYMKSNEYGITVKENAKPAFPVDYLLVTLTHGFPNTDTETNSKFVSSTGFPWSNRQFMGQSQDYQELKKYLFNVASSGDFNLLHEKISNFHLLLYINSLQILSPDEWKLLIESAVKNEWEESLLKLVSSAGWQTLVMILQESG | 84 |
| His6-yNpl4^113–580 I575A (domain or fragment, Saccharomyces cerevisiae, UniProt P33755 113-580, looked up, source: E. coli Rosetta (DE3), purified (Ni-NTA, Resource Q); not shown: His6, N-terminal, kept) IKELAVDEELEKEDGLIPRQKSKLCKHGDRGMCEYCSPLPPWDKEYHEKNKIKHISFHSYLKKLNENANKKENGSSYISPLSEPDFRINKRCHNGHEPWPRGICSKCQPSAITLQQQEFRMVDHVEFQKSEIINEFIQAWRYTGMQRFGYMYGSYSKYDNTPLGIKAVVEAIYEPPQHDEQDGLTMDVEQVKNEMLQIDRQAQEMGLSRIGLIFTDLSDAGAGDGSVFCKRHKDSFFLSSLEVIMAARHQTRHPNVSKYSEQGFFSSKFVTCVISGNLEGEIDISSYQVSTEAEALVTADMISGSTFPSMAYINDTTDERYVPEIFYMKSNEYGITVKENAKPAFPVDYLLVTLTHGFPNTDTETNSKFVSSTGFPWSNRQAMGQSQDYQELKKYLFNVASSGDFNLLHEKISNFHLLLYINSLQILSPDEWKLLIESAVKNEWEESLLKLVSSAGWQTLVMALQESG | 837 |
| His6-yNpl4^113–580 M574Q (domain or fragment, Saccharomyces cerevisiae, UniProt P33755 113-580, looked up, source: E. coli Rosetta (DE3), purified (Ni-NTA, Resource Q); not shown: His6, N-terminal, kept) IKELAVDEELEKEDGLIPRQKSKLCKHGDRGMCEYCSPLPPWDKEYHEKNKIKHISFHSYLKKLNENANKKENGSSYISPLSEPDFRINKRCHNGHEPWPRGICSKCQPSAITLQQQEFRMVDHVEFQKSEIINEFIQAWRYTGMQRFGYMYGSYSKYDNTPLGIKAVVEAIYEPPQHDEQDGLTMDVEQVKNEMLQIDRQAQEMGLSRIGLIFTDLSDAGAGDGSVFCKRHKDSFFLSSLEVIMAARHQTRHPNVSKYSEQGFFSSKFVTCVISGNLEGEIDISSYQVSTEAEALVTADMISGSTFPSMAYINDTTDERYVPEIFYMKSNEYGITVKENAKPAFPVDYLLVTLTHGFPNTDTETNSKFVSSTGFPWSNRQAMGQSQDYQELKKYLFNVASSGDFNLLHEKISNFHLLLYINSLQILSPDEWKLLIESAVKNEWEESLLKLVSSAGWQTLVQILQESG | 634 |
| His6-yNpl4^113–580 M574A (domain or fragment, Saccharomyces cerevisiae, UniProt P33755 113-580, looked up, source: E. coli Rosetta (DE3), purified (Ni-NTA, Resource Q); not shown: His6, N-terminal, kept) IKELAVDEELEKEDGLIPRQKSKLCKHGDRGMCEYCSPLPPWDKEYHEKNKIKHISFHSYLKKLNENANKKENGSSYISPLSEPDFRINKRCHNGHEPWPRGICSKCQPSAITLQQQEFRMVDHVEFQKSEIINEFIQAWRYTGMQRFGYMYGSYSKYDNTPLGIKAVVEAIYEPPQHDEQDGLTMDVEQVKNEMLQIDRQAQEMGLSRIGLIFTDLSDAGAGDGSVFCKRHKDSFFLSSLEVIMAARHQTRHPNVSKYSEQGFFSSKFVTCVISGNLEGEIDISSYQVSTEAEALVTADMISGSTFPSMAYINDTTDERYVPEIFYMKSNEYGITVKENAKPAFPVDYLLVTLTHGFPNTDTETNSKFVSSTGFPWSNRQAMGQSQDYQELKKYLFNVASSGDFNLLHEKISNFHLLLYINSLQILSPDEWKLLIESAVKNEWEESLLKLVSSAGWQTLVAILQESG | 291 |

Each binder was assayed against T1, His6-yNpl4^113–580 (assay: fluorescence polarisation; fluorescence anisotropy; 1 nM FlAsH-labeled His6-SUMO-yUfd1 peptide, His6-yNpl4^113–580 in two-fold dilution series; 25 °C; 50 mM Tris-HCl pH 8.0, 100 mM NaCl, 5 mM β-mercaptoethanol, 0.1 g/L BSA). Conditions: both partners purified.

| Binder | Kd [µM] |
| --- | --- |
| {His6-SUMO}-EPAKLDLPAGQLFFGFPMGWCCPGCC (peptide, UniProt P53044 288-305, looked up, cysteine pairing not given here; also: FlAsH label bound to CCPGCC motif, Ufd1 of Saccharomyces cerevisiae (yUfd1), residues 288-305 (NBM); also called yUfd1 E296A; source: E. coli Rosetta (DE3) (pCold-SUMO), purified (Ni-NTA, Resource Q), labeled with FlAsH-EDT2; not shown: His6, N-terminal, kept; SUMO, N-terminal, kept) [FlAsH-labeled His6-SUMO-yUfd1^288–305-GWCCPGCC E296A] | 0.437 |
| {His6-SUMO}-EPAKADLPEGQLFFGFPMGWCCPGCC (peptide, UniProt P53044 288-305, looked up, cysteine pairing not given here; also: FlAsH label bound to CCPGCC motif, Ufd1 of Saccharomyces cerevisiae (yUfd1), residues 288-305 (NBM); also called yUfd1 L292A; source: E. coli Rosetta (DE3) (pCold-SUMO), purified (Ni-NTA, Resource Q), labeled with FlAsH-EDT2; not shown: His6, N-terminal, kept; SUMO, N-terminal, kept) [FlAsH-labeled His6-SUMO-yUfd1^288–305-GWCCPGCC L292A] | 5.29 |
| {His6-SUMO}-EPAKLDLPEGQAFFGFPMGWCCPGCC (peptide, UniProt P53044 288-305, looked up, cysteine pairing not given here; also: FlAsH label bound to CCPGCC motif, Ufd1 of Saccharomyces cerevisiae (yUfd1), residues 288-305 (NBM); also called yUfd1 L299A; source: E. coli Rosetta (DE3) (pCold-SUMO), purified (Ni-NTA, Resource Q), labeled with FlAsH-EDT2; not shown: His6, N-terminal, kept; SUMO, N-terminal, kept) [FlAsH-labeled His6-SUMO-yUfd1^288–305-GWCCPGCC L299A] | 12.7 |
| {His6-SUMO}-EPAKLDLPEGQLFFGFPAGWCCPGCC (peptide, UniProt P53044 288-305, looked up, cysteine pairing not given here; also: FlAsH label bound to CCPGCC motif, Ufd1 of Saccharomyces cerevisiae (yUfd1), residues 288-305 (NBM); also called yUfd1 M305A; source: E. coli Rosetta (DE3) (pCold-SUMO), purified (Ni-NTA, Resource Q), labeled with FlAsH-EDT2; not shown: His6, N-terminal, kept; SUMO, N-terminal, kept) [FlAsH-labeled His6-SUMO-yUfd1^288–305-GWCCPGCC M305A] | 0.261 |
| {His6-SUMO}-EPAKLDLPEGQLFAGFPMGWCCPGCC (peptide, UniProt P53044 288-305, looked up, cysteine pairing not given here; also: FlAsH label bound to CCPGCC motif, Ufd1 of Saccharomyces cerevisiae (yUfd1), residues 288-305 (NBM); also called yUfd1 F301A; source: E. coli Rosetta (DE3) (pCold-SUMO), purified (Ni-NTA, Resource Q), labeled with FlAsH-EDT2; not shown: His6, N-terminal, kept; SUMO, N-terminal, kept) [FlAsH-labeled His6-SUMO-yUfd1^288–305-GWCCPGCC F301A] | 20.8 |
| {His6-SUMO}-EPAKLDAPEGQLFFGFPMGWCCPGCC (peptide, UniProt P53044 288-305, looked up, cysteine pairing not given here; also: FlAsH label bound to CCPGCC motif, Ufd1 of Saccharomyces cerevisiae (yUfd1), residues 288-305 (NBM); also called yUfd1 L294A; source: E. coli Rosetta (DE3) (pCold-SUMO), purified (Ni-NTA, Resource Q), labeled with FlAsH-EDT2; not shown: His6, N-terminal, kept; SUMO, N-terminal, kept) [FlAsH-labeled His6-SUMO-yUfd1^288–305-GWCCPGCC L294A] | 0.527 |
| {His6-SUMO}-EPAKLDLPERQLFFGFPMGWCCPGCC (peptide, UniProt P53044 288-305, looked up, cysteine pairing not given here; also: FlAsH label bound to CCPGCC motif, Ufd1 of Saccharomyces cerevisiae (yUfd1), residues 288-305 (NBM); also called yUfd1 G297R; source: E. coli Rosetta (DE3) (pCold-SUMO), purified (Ni-NTA, Resource Q), labeled with FlAsH-EDT2; not shown: His6, N-terminal, kept; SUMO, N-terminal, kept) [FlAsH-labeled His6-SUMO-yUfd1^288–305-GWCCPGCC G297R] | 20.9 |
| {His6-SUMO}-EPAKLDLPEGQLFFGAPMGWCCPGCC (peptide, UniProt P53044 288-305, looked up, cysteine pairing not given here; also: FlAsH label bound to CCPGCC motif, Ufd1 of Saccharomyces cerevisiae (yUfd1), residues 288-305 (NBM); also called yUfd1 F303A; source: E. coli Rosetta (DE3) (pCold-SUMO), purified (Ni-NTA, Resource Q), labeled with FlAsH-EDT2; not shown: His6, N-terminal, kept; SUMO, N-terminal, kept) [FlAsH-labeled His6-SUMO-yUfd1^288–305-GWCCPGCC F303A] | 1.77 |
| {His6-SUMO}-EPAKLDLPELQLFFGFPMGWCCPGCC (peptide, UniProt P53044 288-305, looked up, cysteine pairing not given here; also: FlAsH label bound to CCPGCC motif, Ufd1 of Saccharomyces cerevisiae (yUfd1), residues 288-305 (NBM); also called yUfd1 G297L; source: E. coli Rosetta (DE3) (pCold-SUMO), purified (Ni-NTA, Resource Q), labeled with FlAsH-EDT2; not shown: His6, N-terminal, kept; SUMO, N-terminal, kept) [FlAsH-labeled His6-SUMO-yUfd1^288–305-GWCCPGCC G297L] | 0.619 |
| {His6-SUMO}-EPAKLDLPEYQLFFGFPMGWCCPGCC (peptide, UniProt P53044 288-305, looked up, cysteine pairing not given here; also: FlAsH label bound to CCPGCC motif, Ufd1 of Saccharomyces cerevisiae (yUfd1), residues 288-305 (NBM); also called yUfd1 G297Y; source: E. coli Rosetta (DE3) (pCold-SUMO), purified (Ni-NTA, Resource Q), labeled with FlAsH-EDT2; not shown: His6, N-terminal, kept; SUMO, N-terminal, kept) [FlAsH-labeled His6-SUMO-yUfd1^288–305-GWCCPGCC G297Y] | 2.14 |
